In patent publication US20150197796, “SSB METHOD” (OXFORD NANOPORE TECHNOLOGIES LIMITED, published 2015):

Target: EcoSSB-WT (Escherichia coli, UniProt P0AGE0 SEQ:1-177)
Assay: EMSA; 5% TBE gel
Conditions: tags: N-terminal His6-TEV site removed; commercial EcoSSB-WT also run; chain copies: 4 stated (homotetramer in solution)

B1: 70mer polyT (ssDNA)
DNA: TTTTTTTTTTTTTTTTTTTTTTTTTTTTTTTTTTTTTTTTTTTTTTTTTTTTTTTTTTTTTTTTTTTTTT
Question: Does B1 bind?
Answer: binds
